Data from US7759459B2, “Fluorescent assays for protein kinases” (Albert Einstein College of Medicine of Yeshiva University, priority 2003, dated 2010).

Key:
[1] = test system: T1, N=C(N)NCCC[C@H](NC(=O)[C@H](CCCNC(=N)N)NC(=O)[C@H](CCCNC(=N)N)NC(=O)[C@H](CCCNC(=N)N)NC(=O)[C@H](Cc1ccccc1)NC(=O)[C@H](CO)Nc1ccc([N+](=O)[O-])c2nonc12)C(=O)N[C@@H](CCCCN)C(N)=O; assay: Radioactive PKC assay ([γ-32P]ATP); type: biochemical, human; conditions: other: PKCγ, 30.0 °C
T1 construct: purchased Panvera
Procedure: Radioactive PKC Assay—Radioactive assays were performed in duplicate at 30° C. The final assay volume totaled 40 μl and contained 62.5 mM HEPES (pH 7.4), 0.75 mM CaCl2, 12.5 mM MgCl2, 1 mM dithiothreitol, 0.5 mM EGTA, 7.5 μg/mL phosphatidylserine, 1.6 μg/mL diacylglycerol, and 10 ng of PKC. […] Phosphorylation reactions were initiated by the addition of 10 μL of PKC from a stock solution (20 mM Tris-HCl at pH 7.5, 1 mM dithiothreitol, 1 mM EDTA, and 0.75 mg/mL bovine serum albumin) into 30 μL of assay buffer containing peptide substrate. Reactions were terminated after 5 min by spotting 25 μL aliquots onto phosphocellulose paper disks (2.1 cm in diameter). After 10 s, the disks were immersed in 10% glacial acetic acid and soaked with occasional stirring for at least 1 h. The acetic acid was decanted and the disks were collectively washed with four volumes of 0.5% H3PO4, 1 volume of water, followed by a final acetone rinse. The disks were air dried and then counted in a Beckman LS scintillation counter.

[2] = test system: T1, N=C(N)NCCC[C@H](NC(=O)[C@H](CCCNC(=N)N)NC(=O)[C@H](CCCNC(=N)N)NC(=O)[C@H](CCCNC(=N)N)NC(=O)[C@H](Cc1ccccc1)NC(=O)[C@H](CO)Nc1ccc([N+](=O)[O-])c2nonc12)C(=O)N[C@@H](CCCCN)C(N)=O; assay: Fluorescent PKC assay (spectrofluorimetry); type: biochemical, human; conditions: other: PKCγ; Fluorescence; pH 7.4; 30.0 °C
Procedure: Fluorescent PKC assay-Fluorescence assays were performed in triplicate at 30° C. and initiated by addition of ATP to a 100 μL cuvette containing a 50 μL solution of PKC and peptide substrate 2. Final conditions: 62.5 mM HEPES pH 7.4, 3 mM MgCl2, 0.3 mM CaCl2, 0.1 mM EGTA, 1 mM DTT, 0.5 μg/mL phosphatidylserine, 0.1 μg/mL diacylglycerol, 1 mM ATP, and 13 nM PKC. After the addition of ATP, the solution was gently mixed and the time-dependent change in fluorescent intensity (excitation: 520 nm, emission: […]) continuously monitored with a Photon Technology QM-1 spectrofluorimeter.

Substance: PKCγ (Homo sapiens)
- Km [1]: 5.0 ± 1.0 µM
- kcat [1]: 3.5 ± 0.333 s⁻¹
- kcat/Km [1]: 700000 ± 150000 M⁻¹ s⁻¹
- Km [2]: 30 ± 5 µM
- kcat [2]: 3.17 ± 0.667 s⁻¹
- kcat/Km [2]: 105000 ± 28300 M⁻¹ s⁻¹
